In publication PMC4330348, “Identification of protein complexes that bind to histone H3 combinatorial modifications using super-SILAC and weighted correlation network analysis” (Nucleic Acids Research, 2015):

B1: Suz12 (natural protein, mouse (endogenous in MPC11), UniProt Q80U70 1-741, looked up)
chain: MAPQKHGGGGGGGSGPSAGSGGGGFGGSAAAVAAAASGGKSGGGGCGGGGSYSASSSSAAAAAAAAGAAVLPVKKPKMEHVQADHELFLQAFEKPTQIYRFLRTRNLIAPIFLHRTLTYMSHRNSRTSIKRKTFKVDDMLSKVEKMKGEQESHSLSAHLQLTFTGFFHKNDKPSQNSENEQNSVTLEVLLVKVCHKKRKDVSCPIRQVPTGKKQVPLNPDLNQTKPGNFPSLAVSSNEFEPSNSHMVKSYSLLFRVTRPGRREFNGMINGETNENIDVSEELPARRKRNREDGEKTFVAQMTVFDKNRRLQLLDGEYEVAMQEMEECPISKKRATWETILDGKRLPPFETFSQGPTLQFTLRWTGETNDKSTAPVAKPLATRNSESLHQENKPGSVKPAQTIAVKETLTTELQTRKEKDNSNESRQKLRIFYQFLYNNNTRQQTEARDDLHCPWCTLNCRKLYSLLKHLKLCHSRFIFNYVYHPKGARIDVSINECYDGSYAGNPQDIHRQPGFAFSRNGPVKRTPITHILVCRPKRTKASMSEFLESEDGEVEQQRTYSSGHNRLYFHSDTCLPLRPQEMEVDSEDEKDPEWLREKTITQIEEFSDVNEGEKEVMKLWNLHVMKHGFIADNQMNHACMLFVENYGQKIIKKNLCRNFMLHLVSMHDFNLISIMSIDKAVTKLREMQQKLEKGESATPSNEEIAEEQNGTANGFSETNSKEKALETDGVSGVPKQSKKQKL
notes: Suz12, mouse; also called PRC2 complex member; source: endogenous, MPC11 nuclear and chromatin extract
B2: Ezh2 (enzyme)
chain: not shown
notes: Ezh2, mouse; also called PRC2 complex member; source: endogenous, MPC11 nuclear and chromatin extract
B3: Eed (natural protein)
chain: not shown
notes: Eed, mouse; also called PRC2 complex member; source: endogenous, MPC11 nuclear and chromatin extract

The binders below were run against T1, histone H3 peptide aa1–20 trimethylated at K9 (H3K9me3) (UniProt P68431 2-21, trimethyl-lysine at K9; biotin attached to the C-terminus via a glycine-lysine linker) (assay: affinity purification with mass spectrometry; biotinylated histone H3 peptides on NeutrAvidin beads; pooled nuclear and MNase-solubilised chromatin extracts of SILAC-labelled MPC11 cells adjusted to 150 mM NaCl, 4°C; washes with 150 mM KCl, 0.2% Triton X-100; heavy pulldowns against a mixed light reference (super-SILAC); beads alone as control; two replicates). Details: one partner purified.
T1 construct: histone H3 N-terminal tail, aa1–20; glycine-lysine linker (told in words), carries the biotin; also called H3K9me3 modified H3 1–20 peptide; source: synthetic peptide (GL biochem)

Row | Binder | fold binding relative to the H3K27me3 peptide [fold]
1 | B1 | ~3
2 | B2 | ~3
3 | B3 | ~3
